Measured values from patent US20240400675A1 (published 2024).

Tests used:
[1] = target: T1, mouse CLDN6 (mouse, UniProt Q9Z262 1-219); test: flow cytometry on transfected HEK293E cells
T1 construct: whole, on cells; also called murine CLDN6
T1 sequence (looked up): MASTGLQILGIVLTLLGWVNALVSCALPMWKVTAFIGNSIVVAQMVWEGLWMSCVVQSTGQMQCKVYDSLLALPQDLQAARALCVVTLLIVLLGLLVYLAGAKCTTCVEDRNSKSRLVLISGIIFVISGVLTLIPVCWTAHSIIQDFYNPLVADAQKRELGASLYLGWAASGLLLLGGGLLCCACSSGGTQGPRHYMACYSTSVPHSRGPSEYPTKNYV
Experimental: (§1) The following experiments used to screen CLDN6 binding domains were generally performed as follows. HEK293T or HEK293E cells were respectively stably or transiently transfected to express CLDN6, CLND9, or other targets of interest. 48 hours post transfection, cells were harvested and incubated with dilutions of the indicated test articles for 1 hour at 4° C. […] Binding was then assessed via flow cytometry.

[2] = target: T2, human CLDN6 (human, UniProt P56747 1-220); test: flow cytometry on transfected HEK293E cells
T2 construct: also called Claudin 6
T2 sequence: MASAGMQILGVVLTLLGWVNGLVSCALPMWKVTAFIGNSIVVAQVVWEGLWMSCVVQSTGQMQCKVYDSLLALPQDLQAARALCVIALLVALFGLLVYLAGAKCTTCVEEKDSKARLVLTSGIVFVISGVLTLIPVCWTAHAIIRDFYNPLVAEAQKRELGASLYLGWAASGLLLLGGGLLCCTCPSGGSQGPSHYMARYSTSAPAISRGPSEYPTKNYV
Experimental: as §1

[3] = target: T3, CLDN6 I143V isotype (human, UniProt P56747 1-220); test: flow cytometry on transfected HEK293E cells
T3 chain: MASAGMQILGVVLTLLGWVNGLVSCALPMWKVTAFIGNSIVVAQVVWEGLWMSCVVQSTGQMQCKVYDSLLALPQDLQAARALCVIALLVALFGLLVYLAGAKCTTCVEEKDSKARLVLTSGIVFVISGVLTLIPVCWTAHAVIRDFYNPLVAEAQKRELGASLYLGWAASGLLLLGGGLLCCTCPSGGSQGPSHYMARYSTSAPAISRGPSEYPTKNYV
Experimental: as §1

[4] = target: T4, human CLDN17 (human, UniProt P56750 1-224); test: flow cytometry on transfected cells
T4 construct: whole, on cells
T4 sequence (looked up): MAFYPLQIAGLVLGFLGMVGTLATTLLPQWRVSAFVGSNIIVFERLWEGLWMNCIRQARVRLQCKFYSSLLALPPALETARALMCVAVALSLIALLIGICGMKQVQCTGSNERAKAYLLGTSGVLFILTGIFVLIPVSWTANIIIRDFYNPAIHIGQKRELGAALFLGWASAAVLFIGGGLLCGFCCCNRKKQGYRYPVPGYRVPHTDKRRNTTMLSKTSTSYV

[5] = target: T5, human CLDN5 (human, UniProt O00501 1-218); test: flow cytometry on transfected cells
T5 construct: whole, on cells
T5 sequence (looked up): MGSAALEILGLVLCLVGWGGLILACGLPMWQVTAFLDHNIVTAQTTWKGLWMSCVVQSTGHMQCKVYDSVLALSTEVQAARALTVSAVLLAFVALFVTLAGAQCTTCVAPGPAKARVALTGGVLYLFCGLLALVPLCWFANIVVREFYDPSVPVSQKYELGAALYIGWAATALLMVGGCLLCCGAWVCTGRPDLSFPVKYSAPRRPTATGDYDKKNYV

[6] = target: T6, human CLDN8 (human, UniProt P56748 1-225); test: flow cytometry on transfected cells
T6 construct: whole, on cells
T6 sequence (looked up): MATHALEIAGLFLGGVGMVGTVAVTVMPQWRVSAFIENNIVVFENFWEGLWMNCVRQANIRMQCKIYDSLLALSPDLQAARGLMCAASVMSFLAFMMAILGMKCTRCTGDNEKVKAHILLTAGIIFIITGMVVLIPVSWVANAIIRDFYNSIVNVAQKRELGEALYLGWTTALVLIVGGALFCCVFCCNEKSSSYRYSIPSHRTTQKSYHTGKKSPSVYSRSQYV

B1: XENP34233 (C6-30_H1L1 x CD3 bsAb in the 2+1 Fab2-scFv-Fc format) (bispecific antibody)
heavy 1: QVQLVQSGAEVKKPGASVKVSCKTSGYTFTEYTMHWVRQAPGQSLEWMGGIDPNNGNTHYNQKFQGRVTITVDKSASTAYMELSSLRSEDTAVYYCARIYYFGRLYFDFWGAGTLVTVSSASTKGPSVFPLAPSSKSTSGGTAALGCLVKDYFPEPVTVSWNSGALTSGVHTFPAVLQSSGLYSLSSVVTVPSSSLGTQTYICNVNHKPSDTKVDKKVEPKSCDKTHTCPPCPAPPVAGPSVFLFPPKPKDTLMISRTPEVTCVVVDVKHEDPEVKFNWYVDGVEVHNAKTKPREEEYNSTYRVVSVLTVLHQDWLNGKEYKCKVSNKALPAPIEKTISKAKGQPREPQVYTLPPSREEMTKNQVSLTCDVSGFYPSDIAVEWESDGQPENNYKTTPPVLDSDGSFFLYSKLTVDKSRWEQGDVFSCSVMHEALHNHYTQKSLSLSPGK
heavy 2: QVQLVQSGAEVKKPGASVKVSCKTSGYTFTEYTMHWVRQAPGQSLEWMGGIDPNNGNTHYNQKFQGRVTITVDKSASTAYMELSSLRSEDTAVYYCARIYYFGRLYFDFWGAGTLVTVSSASTKGPSVFPLAPSSKSTSGGTAALGCLVKDYFPEPVTVSWNSGALTSGVHTFPAVLQSSGLYSLSSVVTVPSSSLGTQTYICNVNHKPSNTKVDKKVEPKSCGGGGSGGGGSQAVVTQEPSLTVSPGGTVTLTCGSSTGAVTTSNYANWVQQKPGKSPRGLIGGTNKRAPGVPARFSGSLLGGKAALTISGAQPEDEADYYCALWYSNHWVFGGGTKLTVLGKPGSGKPGSGKPGSGKPGSEVQLVESGGGLVQPGGSLRLSCAASGFTFSTYAMNWVRQAPGKGLEWVGRIRSKYNNYATYYADSVKGRFTISRDDSKNTLYLQMNSLRAEDTAVYYCVRHGNFGDSYVSWFAYWGQGTLVTVSSGGGGSGGGGSKTHTCPPCPAPPVAGPSVFLFPPKPKDTLMISRTPEVTCVVVDVKHEDPEVKFNWYVDGVEVHNAKTKPREEQYNSTYRVVSVLTVLHQDWLNGKEYKCKVSNKALPAPIEKTISKAKGQPREPQVYTLPPSREQMTKNQVKLTCLVKGFYPSDIAVEWESNGQPENNYKTTPPVLDSDGSFFLYSKLTVDKSRWQQGNVFSCSVMHEALHNHYTQKSLSLSPGK
light: not shown
notes: copies: 1 + 1 + 2
B1: binds [1]; binds [2]; binds [3]. B1: no binding [4]; no binding [5]; no binding [6].

B2: XENP34229 (C6-30_H1L1 x CD3 bsAb in the 1+1 Fab-scFv-Fc format) (bispecific antibody)
heavy: QVQLVQSGAEVKKPGASVKVSCKTSGYTFTEYTMHWVRQAPGQSLEWMGGIDPNNGNTHYNQKFQGRVTITVDKSASTAYMELSSLRSEDTAVYYCARIYYFGRLYFDFWGAGTLVTVSSASTKGPSVFPLAPSSKSTSGGTAALGCLVKDYFPEPVTVSWNSGALTSGVHTFPAVLQSSGLYSLSSVVTVPSSSLGTQTYICNVNHKPSDTKVDKKVEPKSCDKTHTCPPCPAPPVAGPSVFLFPPKPKDTLMISRTPEVTCVVVDVKHEDPEVKFNWYVDGVEVHNAKTKPREEEYNSTYRVVSVLTVLHQDWLNGKEYKCKVSNKALPAPIEKTISKAKGQPREPQVYTLPPSREEMTKNQVSLTCDVSGFYPSDIAVEWESDGQPENNYKTTPPVLDSDGSFFLYSKLTVDKSRWEQGDVFSCSVMHEALHNHYTQKSLSLSPGK
scFv-Fc: QAVVTQEPSLTVSPGGTVTLTCGSSTGAVTTSNYANWVQQKPGKSPRGLIGGTNKRAPGVPARFSGSLLGGKAALTISGAQPEDEADYYCALWYSNHWVFGGGTKLTVLGKPGSGKPGSGKPGSGKPGSEVQLVESGGGLVQPGGSLRLSCAASGFTFSTYAMNWVRQAPGKGLEWVGRIRSKYNNYATYYADSVKGRFTISRDDSKNTLYLQMNSLRAEDTAVYYCVRHGNFGDSYVSWFAYWGQGTLVTVSSEPKSSDKTHTCPPCPAPPVAGPSVFLFPPKPKDTLMISRTPEVTCVVVDVKHEDPEVKFNWYVDGVEVHNAKTKPREEQYNSTYRVVSVLTVLHQDWLNGKEYKCKVSNKALPAPIEKTISKAKGQPREPQVYTLPPSREQMTKNQVKLTCLVKGFYPSDIAVEWESNGQPENNYKTTPPVLDSDGSFFLYSKLTVDKSRWQQGNVFSCSVMHEALHNHYTQKSLSLSPGK
light: not shown
notes: copies: 1 + 1 + 1
B2: binds [1]; binds [2]; binds [3]. B2: no binding [4]; no binding [5]; no binding [6].

B3: XENP34638 (C6-30_H2L1 x CD3 bsAb in the 2+1 Fab2-scFv-Fc format) (bispecific antibody)
heavy 1: EVQLVQSGAEVKKPGESLRISCKTSGYTFTEYTMHWVRQMPGKSLEWMGGIDPNNGNTHYNQKFQGHVTISVDKSISTAYLQWSSLKASDTAMYYCARIYYFGRLYFDFWGAGTLVTVSSASTKGPSVFPLAPSSKSTSGGTAALGCLVKDYFPEPVTVSWNSGALTSGVHTFPAVLQSSGLYSLSSVVTVPSSSLGTQTYICNVNHKPSDTKVDKKVEPKSCDKTHTCPPCPAPPVAGPSVFLFPPKPKDTLMISRTPEVTCVVVDVKHEDPEVKFNWYVDGVEVHNAKTKPREEEYNSTYRVVSVLTVLHQDWLNGKEYKCKVSNKALPAPIEKTISKAKGQPREPQVYTLPPSREEMTKNQVSLTCDVSGFYPSDIAVEWESDGQPENNYKTTPPVLDSDGSFFLYSKLTVDKSRWEQGDVFSCSVMHEALHNHYTQKSLSLSPGK
heavy 2: EVQLVQSGAEVKKPGESLRISCKTSGYTFTEYTMHWVRQMPGKSLEWMGGIDPNNGNTHYNQKFQGHVTISVDKSISTAYLQWSSLKASDTAMYYCARIYYFGRLYFDFWGAGTLVTVSSASTKGPSVFPLAPSSKSTSGGTAALGCLVKDYFPEPVTVSWNSGALTSGVHTFPAVLQSSGLYSLSSVVTVPSSSLGTQTYICNVNHKPSNTKVDKKVEPKSCGGGGSGGGGSQAVVTQEPSLTVSPGGTVTLTCGSSTGAVTTSNYANWVQQKPGKSPRGLIGGTNKRAPGVPARFSGSLLGGKAALTISGAQPEDEADYYCALWYSNHWVFGGGTKLTVLGKPGSGKPGSGKPGSGKPGSEVQLVESGGGLVQPGGSLRLSCAASGFTFSTYAMNWVRQAPGKGLEWVGRIRSKYNNYATYYADSVKGRFTISRDDSKNTLYLQMNSLRAEDTAVYYCVRHGNFGDSYVSWFAYWGQGTLVTVSSGGGGSGGGGSKTHTCPPCPAPPVAGPSVFLFPPKPKDTLMISRTPEVTCVVVDVKHEDPEVKFNWYVDGVEVHNAKTKPREEQYNSTYRVVSVLTVLHQDWLNGKEYKCKVSNKALPAPIEKTISKAKGQPREPQVYTLPPSREQMTKNQVKLTCLVKGFYPSDIAVEWESNGQPENNYKTTPPVLDSDGSFFLYSKLTVDKSRWQQGNVFSCSVMHEALHNHYTQKSLSLSPGK
light: not shown
notes: copies: 1 + 1 + 2
B3: binds [1]; binds [2]; binds [3]. B3: no binding [4]; no binding [5]; no binding [6].

B4: XENP34637 (C6-30_H2L1 x CD3 bsAb in the 1+1 Fab-scFv-Fc format) (bispecific antibody)
heavy: EVQLVQSGAEVKKPGESLRISCKTSGYTFTEYTMHWVRQMPGKSLEWMGGIDPNNGNTHYNQKFQGHVTISVDKSISTAYLQWSSLKASDTAMYYCARIYYFGRLYFDFWGAGTLVTVSSASTKGPSVFPLAPSSKSTSGGTAALGCLVKDYFPEPVTVSWNSGALTSGVHTFPAVLQSSGLYSLSSVVTVPSSSLGTQTYICNVNHKPSDTKVDKKVEPKSCDKTHTCPPCPAPPVAGPSVFLFPPKPKDTLMISRTPEVTCVVVDVKHEDPEVKFNWYVDGVEVHNAKTKPREEEYNSTYRVVSVLTVLHQDWLNGKEYKCKVSNKALPAPIEKTISKAKGQPREPQVYTLPPSREEMTKNQVSLTCDVSGFYPSDIAVEWESDGQPENNYKTTPPVLDSDGSFFLYSKLTVDKSRWEQGDVFSCSVMHEALHNHYTQKSLSLSPGK
scFv-Fc: not shown
light: not shown
notes: copies: 1 + 1 + 1
B4: binds [1]; binds [2]; binds [3]. B4: no binding [4]; no binding [5]; no binding [6].
